From patent US20220389118A1 (Chugai, published 2022) come the findings set out here.

T1: human FcγRIIa type R (allotype R131) extracellular domain with C-terminal His tag (human, UniProt P12318 34-217)
T1 construct: extracellular domain; also called FcγRIIaR; FcγRIIa R type; not shown: His tag at the C terminus
T1 sequence (looked up): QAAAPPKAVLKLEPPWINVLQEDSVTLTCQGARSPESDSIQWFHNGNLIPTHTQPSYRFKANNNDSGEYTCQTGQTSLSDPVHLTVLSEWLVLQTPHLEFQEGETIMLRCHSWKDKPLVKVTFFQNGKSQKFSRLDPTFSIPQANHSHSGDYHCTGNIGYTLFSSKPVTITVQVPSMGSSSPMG

T2: human FcγRIIa type R extracellular domain with C-terminal His tag (human, UniProt P12318 34-217)
T2 construct: extracellular domain; also called FcγRIIaR; FcγRIIa R
T2 sequence (looked up): T1 sequence (looked up)

T3: human FcγRIIb extracellular domain with C-terminal His tag (human, UniProt P31994 43-217)
T3 construct: extracellular domain; not shown: His tag at the C terminus
T3 sequence (looked up): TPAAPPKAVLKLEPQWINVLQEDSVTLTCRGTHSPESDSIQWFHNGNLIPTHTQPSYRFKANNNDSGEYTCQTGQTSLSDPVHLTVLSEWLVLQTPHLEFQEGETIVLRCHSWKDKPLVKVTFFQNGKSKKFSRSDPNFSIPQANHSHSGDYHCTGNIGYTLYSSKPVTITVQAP

B1: Fv4-F1389 (antibody, human IgG1, kappa)
heavy: QVQLQESGPGLVKPSETLSLTCAVSGHSISHDHAWSWVRQPPGEGLEWIGFISYSGITNYNPSLQGRVTISRDNSKNTLYLQMNSLRAEDTAVYYCARSLARTTAMDYWGEGTLVTVSSASTKGPSVFPLAPSSKSTSGGTAALGCLVKDYFPEPVTVSWNSGALTSGVHTFPAVLQSSGLYSLSSVVTVPSSSLGTQTYICNVNHKPSNTKVDKKVEPKSCDKTHTCPPCPAPELLGGPSVFLFPPKPKDTLMISRTPEVTCVVVDVSHEDPEVKFNWYVDGVEVHNAKTKPREEQYNSTYRVVSVLTVLHQDWLNGKEYKCKVSNKALPAPIEKTISKAKGQPREPQVYTLPPSRDELTKNQVSLTCLVKGFYPSDIAVEWESNGQPENNYKTTPPVLDSDGSFFLYSKLTVDKSRWQQGNVFSCSVLHEALHSHTTQKSLSLSP
light: DIQMTQSPSSLSASVGDSVTITCQASTDISSHLNWYQQKPGKAPELLIYYGSHLLSGVPSRFSGSGSGTDFTFTISSLEAEDAATYYCGQGNRLPYTFGQGTKVEIERTVAAPSVFIFPPSDEQLKSGTASVVCLLNNFYPREAKVQWKVDNALQSGNSQESVTEQDSKDSTYSLSSTLTLSKADYEKHKVYACEVTHQGLSSPVTKSFNRGEC
notes: Variant of Fv4-LS; copies: 2 + 2
B2: Fv4-F1391 (antibody, human IgG1, kappa)
heavy: B1 heavy with T438N
light: B1 light
notes: as for B1
B3: Fv4-F1384 (antibody, human IgG1, kappa)
heavy: B1 heavy with S428A, T438Y
light: B1 light
notes: as for B1
B4: Fv4-F1380 (antibody, human IgG1, kappa)
heavy: B1 heavy with S428D, T438Y
light: B1 light
notes: as for B1
B5: Fv4-F1385 (antibody, human IgG1, kappa)
heavy: B1 heavy with S428Q, T438Y
light: B1 light
notes: as for B1
B6: Fv4-F1382 (antibody, human IgG1, kappa)
heavy: B1 heavy with S428K, T438Y
light: B1 light
notes: as for B1
B7: Fv4-F1383 (antibody, human IgG1, kappa)
heavy: B1 heavy with S428R, T438Y
light: B1 light
notes: as for B1
B8: Fv4-F1390 (antibody, human IgG1, kappa)
heavy: B1 heavy with T438H
light: B1 light
notes: as for B1
B9: Fv4-F1381 (antibody, human IgG1, kappa)
heavy: B1 heavy with S428E, T438Y
light: B1 light
notes: as for B1
B10: Fv4-F1386 (antibody, human IgG1, kappa)
heavy: B1 heavy with S428Y, T438Y
light: B1 light
notes: as for B1
B11: Fv4-F1388 (antibody, human IgG1, kappa)
heavy: B1 heavy with T438F
light: B1 light
notes: as for B1
B12: Fv4-F1392 (antibody, human IgG1, kappa)
heavy: B1 heavy with T438K
light: B1 light
notes: as for B1
B13: Fv4-F1166 (antibody, IgG1)
heavy: B1 heavy with M254Y, S256T, T258E, L430M, S436N, T438Y, Q440R, S442E
light: B1 light
notes: copies: 2 + 2
B14: Fv4-N434H (antibody, human IgG1, kappa)
heavy: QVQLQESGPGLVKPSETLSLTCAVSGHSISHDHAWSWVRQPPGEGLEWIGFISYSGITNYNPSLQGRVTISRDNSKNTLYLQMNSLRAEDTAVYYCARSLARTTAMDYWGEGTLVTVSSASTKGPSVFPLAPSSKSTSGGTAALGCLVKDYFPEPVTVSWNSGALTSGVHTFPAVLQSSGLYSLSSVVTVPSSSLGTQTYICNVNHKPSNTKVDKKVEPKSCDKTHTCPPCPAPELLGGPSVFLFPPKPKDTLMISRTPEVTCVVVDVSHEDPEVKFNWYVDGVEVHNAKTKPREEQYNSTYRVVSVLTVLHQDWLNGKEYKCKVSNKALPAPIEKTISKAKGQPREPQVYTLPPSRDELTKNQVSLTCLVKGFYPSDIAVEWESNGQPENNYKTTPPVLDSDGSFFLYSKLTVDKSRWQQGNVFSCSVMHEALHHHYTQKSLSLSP
light: B1 light
notes: copies: 2 + 2
B15: Fv4-F1173 (antibody, human IgG1, kappa)
heavy: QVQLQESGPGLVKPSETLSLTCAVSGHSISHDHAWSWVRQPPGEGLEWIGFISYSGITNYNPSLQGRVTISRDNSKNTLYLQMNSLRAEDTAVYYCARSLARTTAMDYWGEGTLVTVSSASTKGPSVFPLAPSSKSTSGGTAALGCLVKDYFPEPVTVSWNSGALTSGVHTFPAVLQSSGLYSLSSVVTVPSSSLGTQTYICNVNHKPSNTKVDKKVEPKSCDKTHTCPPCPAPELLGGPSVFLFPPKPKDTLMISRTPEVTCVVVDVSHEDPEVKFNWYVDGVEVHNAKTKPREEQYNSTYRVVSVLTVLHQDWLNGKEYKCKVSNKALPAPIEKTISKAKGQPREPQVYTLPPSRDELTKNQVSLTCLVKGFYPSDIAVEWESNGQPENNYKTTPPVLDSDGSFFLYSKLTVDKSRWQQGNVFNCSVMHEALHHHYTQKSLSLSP
light: B1 light
notes: copies: 2 + 2
B16: Fv4-F1167 (antibody, human IgG1, kappa)
heavy: B1 heavy with M254Y, S256T, T258E, S426N, L430M, S436N, T438Y
light: B1 light
notes: copies: 2 + 2
B17: Fv4-F1171 (antibody, human IgG1, kappa)
heavy: B1 heavy with S426N, T438Y
light: B1 light
notes: copies: 2 + 2
B18: Fv4-F1172 (antibody, IgG1)
heavy: B1 heavy with L430M, S436H, T438Y, Q440R, S442E
light: B1 light
notes: copies: 2 + 2
B19: IL6R-BP187/IL6R-L (antibody, human IgG1, kappa)
heavy: B1 heavy with L236Y, P240D, P273G, K328A, A332K, L430M, S436N, T438Y, K441E
light: not shown
notes: copies: 2 + 2
B20: IL6R-BP203/IL6R-L (antibody, human IgG1, kappa)
heavy: B1 heavy with G239D, P240D, P273G, A332R, L430M, S436N, T438Y, K441E
light: not shown
notes: copies: 2 + 2
B21: IL6R-BP191/IL6R-L (antibody, human IgG1, kappa)
heavy: B1 heavy with E235D, P240D, H270D, P273G, K328A, A332K, L430M, S436N, T438Y, K441E
light: not shown
notes: copies: 2 + 2
B22: IL6R-BP192/IL6R-L (antibody, human IgG1, kappa)
heavy: B1 heavy with E235D, P240D, H270D, P273G, Y298D, A332K, L430M, S436N, T438Y, K441E
light: not shown
notes: copies: 2 + 2
B23: IL6R-BP189/IL6R-L (antibody, human IgG1, kappa)
heavy: B1 heavy with G239D, P240D, H270D, P273G, K328A, A332K, L430M, S436N, T438Y, K441E
light: not shown
notes: copies: 2 + 2
B24: IL6R-PD082/IL6R-L (antibody, human IgG1, kappa)
heavy: B1 heavy with G239F, P240D, M254Y, L430M, S436Y, T438Y
light: not shown
notes: also called P238D/G237F; G237F/P238D; copies: 2 + 2
B25: IL6R-PD097/IL6R-L (antibody, human IgG1, kappa)
heavy: B1 heavy with P240D, S241D, M254Y, L430M, S436Y, T438Y
light: not shown
notes: also called P238D/S239D; copies: 2 + 2
B26: IL6R-PD081/IL6R-L (antibody, human IgG1, kappa)
heavy: B1 heavy with G239E, P240D, M254Y, L430M, S436Y, T438Y
light: not shown
notes: also called P238D/G237E; G237E/P238D; copies: 2 + 2
B27: IL6R-PD095/IL6R-L (antibody, human IgG1, kappa)
heavy: B1 heavy with G239Y, P240D, M254Y, L430M, S436Y, T438Y
light: not shown
notes: also called P238D/G237Y; G237Y/P238D; copies: 2 + 2
B28: IL6R-PD086/IL6R-L (antibody, human IgG1, kappa)
heavy: B1 heavy with G239L, P240D, M254Y, L430M, S436Y, T438Y
light: not shown
notes: also called P238D/G237L; G237L/P238D; copies: 2 + 2
B29: IL6R-PD094/IL6R-L (antibody, human IgG1, kappa)
heavy: B1 heavy with G239W, P240D, M254Y, L430M, S436Y, T438Y
light: not shown
notes: also called P238D/G237W; G237W/P238D; copies: 2 + 2
B30: IL6R-PD043/IL6R-L (antibody, human IgG1, kappa)
heavy: B1 heavy with L236Y, P240D, M254Y, L430M, S436Y, T438Y
light: not shown
notes: also called P238D/L234Y; L234Y/P238D; copies: 2 + 2
B31: IL6R-BP542/IL6R-L (antibody, human IgG1, kappa)
heavy: QVQLQESGPGLVKPSETLSLTCAVSGHSISHDHAWSWVRQPPGEGLEWIGFISYSGITNYNPSLQGRVTISRDNSKNTLYLQMNSLRAEDTAVYYCARSLARTTAMDYWGEGTLVTVSSASTKGPSVFPLAPSSKSTSGGTAALGCLVKDYFPEPVTVSWNSGALTSGVHTFPAVLQSSGLYSLSSVVTVPSSSLGTQTYICNVNHKPSNTKVDKKVEPKSCDKTHTCPPCPAPDLLGDDSVFLFPPKPKDTLMISRTPEVTCVVVDVSDEDGEVKFNWYVDGVEVHNAKTKPREEQFNSTYRVVSVLTVLHQDWLNGKEYKCKVSNKALPRPIEKTISKAKGQPREPQVYTLPPSRDELTKNQVSLTCLVKGFYPSDIAVEWESNGQPENNYKTTPPVLDSDGSFFLYSKLTVDKSRWQQGNVFSCSVMHEALHNHYTQESLSLSP
light: not shown
notes: Y296F introduced into IL6R-BP230 (takes the place of Y296D); copies: 2 + 2

What is called Kd is the equilibrium constant for the complex coming apart.

Residue numbers refer to the chain shown, from its start. Names may count otherwise.

T6 sequence (P12314 16-292): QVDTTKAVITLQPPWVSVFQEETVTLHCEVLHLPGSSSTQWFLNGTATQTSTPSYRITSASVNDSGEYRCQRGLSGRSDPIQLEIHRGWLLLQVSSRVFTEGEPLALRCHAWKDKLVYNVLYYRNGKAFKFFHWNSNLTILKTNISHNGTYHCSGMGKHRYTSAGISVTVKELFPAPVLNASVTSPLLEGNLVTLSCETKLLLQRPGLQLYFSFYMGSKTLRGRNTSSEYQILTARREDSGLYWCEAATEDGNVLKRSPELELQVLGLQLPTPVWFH
T4 sequence (P55899 24-297 limits assumed, chain 1 of 2): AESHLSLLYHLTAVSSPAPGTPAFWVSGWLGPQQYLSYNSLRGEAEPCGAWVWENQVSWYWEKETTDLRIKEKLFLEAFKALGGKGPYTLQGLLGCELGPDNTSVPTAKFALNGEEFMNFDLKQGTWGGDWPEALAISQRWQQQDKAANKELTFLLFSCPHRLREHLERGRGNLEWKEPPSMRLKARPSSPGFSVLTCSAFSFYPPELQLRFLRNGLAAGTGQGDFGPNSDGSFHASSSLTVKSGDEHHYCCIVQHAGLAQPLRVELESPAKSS
T4 sequence (P61769 21-119 limits assumed, chain 2 of 2): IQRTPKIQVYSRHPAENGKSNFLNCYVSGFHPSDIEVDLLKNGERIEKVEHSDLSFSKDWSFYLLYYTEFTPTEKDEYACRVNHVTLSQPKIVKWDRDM
T7 sequence (P08637 17-208 F176V): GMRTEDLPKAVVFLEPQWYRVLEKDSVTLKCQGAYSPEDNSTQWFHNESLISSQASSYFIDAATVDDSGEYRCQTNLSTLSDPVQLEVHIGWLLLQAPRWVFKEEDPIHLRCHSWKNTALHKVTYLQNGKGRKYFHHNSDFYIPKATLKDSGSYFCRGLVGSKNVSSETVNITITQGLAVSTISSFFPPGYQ

One test addresses T4, human FcRn (human, UniProt P55899 24-297; P61769 21-119).
T4 construct: the construct is not described
Description: binding to FcRn at pH 6.0; method not stated.
B1 showed a Kd of 68 nM. That is a double-digit nanomolar value.
In turn, B2 registered a Kd of 420 nM.
Still for that read-out and setting: the same measure for B3: 86 nM; for B4: 73 nM.
Same read-out and setting: to B5 belongs 77 nM.
Still for that read-out and setting: the same measure for B6: 130 nM.
Regarding B7, binding was put at a Kd of 160 nM.
Still for that read-out and setting: the same measure for B8: 400 nM; for B9: 86 nM; for B10: 160 nM.
On the same count and under the same terms, the same measure for B11: 80 nM; for B12: 270 nM.

The next test deals with T4, human FcRn. Description: FcRn binding affinity at pH 6.0; method not stated.
B13 registered a Kd of 210 nM.
The same measure, in the same setting: the same measure for B14: 430 nM; for B15: 530 nM.
Still for that read-out and setting: to B16 belongs 250 nM.
Same read-out and setting: the same measure for B17: 240 nM; for B18: 400 nM.

The target of another test is T5, human FcγRIIIa type V (allotype V158) extracellular domain with C-terminal His tag (human, UniProt P08637 17-208).
T5 construct: extracellular domain; also called FcγRIIIaV; FcγRIIIa V type; not shown: His tag at the C terminus
T5 sequence (P08637 17-208 F176V): as above
Description: SPR (Biacore), antibody captured, FcγR analyte.
Consider B19, for which the affinity, expressed as Kd, was 56000 nM.
On the same count and under the same terms, the same measure for B20: 72000 nM.

Another test deals with T1, human FcγRIIa type R (allotype R131) …. Description: SPR (Biacore), antibody captured, FcγR analyte. (Surface plasmon resonance follows binding to a sensor surface in real time, without labels.)
B19 displayed a Kd of 2800 nM.
Still for that read-out and setting: the same measure for B21: 3000 nM; for B20: 990 nM.
B22 returned a Kd of 2600 nM. Against the preceding molecule, the Kd is about 2.6-fold higher.

Another test addresses T6, human FcγRIa extracellular domain with C-terminal His tag (human, UniProt P12314 16-292).
T6 construct: not shown: His tag at the C terminus
Nature of the test: SPR (Biacore), antibody captured, FcγR analyte.
B19 displayed a Kd of 25 nM.
For B21, the dissociation constant (Kd) is 4 nM.
Same read-out and setting: to B20 belongs 180 nM; to B22, 6.6 nM; to B23, 42 nM.

The next test concerns the target T7, human FcγRIIIa type V extracellular domain with C-terminal His tag (human, UniProt P08637 17-208).
T7 construct: extracellular domain; also called FcγRIIIaV; FcγRIIIa V type
Description: SPR, Ref. Ex. 25.
In turn, B24 gave a Kd of 43000 nM.
Still for that read-out and setting: the same measure for B25: 17000 nM; for B26: 41000 nM; for B27: 42000 nM.
Still for that read-out and setting: to B28 belongs 41000 nM; to B29, 38000 nM; to B30, 45000 nM.

The next test addresses T2, human FcγRIIa type R extracellular …. Nature of the test: SPR, Ref. Ex. 25.
Molecule B24 displayed a Kd of 14000 nM.
On the same count and under the same terms, to B26 belongs 38000 nM.
Still for that read-out and setting: to B27 belongs 7900 nM; to B29, 7200 nM; to B30, 26000 nM.

For the next test, the target named is T3, human FcγRIIb extracellular domain with …. Nature of the test: SPR (Biacore), antibody captured, FcγR analyte.
B31 gave a Kd of 20 nM.
